# Values quoted from earlier work in patent US20100298348A1, “Method of Decreasing Ubiquitylated Protein Levels” (priority 2009, published 2010).
# B1: Uch-L1: ubiquitin hydrolase (protein, UniProt P09936 1-220, looked up)
# Ubiquitin carboxyl-terminal …: MQLKPMEINPEMLNKVLSRLGVAGQWRFVDVLGLEEESLGSVPAPACALLLLFPLTAQHENFRKKQIEELKGQEVSPKVYFMKQTIGNSCGTIGLIHAVANNQDKLGFEDGSVLKQFLSETEKMSPEDRAKCFEKNEAIQAAHDAVAQEGQCRVDDKVNFHFILFNNVDGHLYELDGRMPFPVNHGASSEDTLLKDAAKVCREFTEREQGEVRFSAVALC
# Assays:
# gamma secretase = details: in vivo; cited from earlier work
# hippocampal slices = details: cited from earlier work
# mouse model of AD = details: cited from earlier work
Molecule,outcome of Phase III clinical trial (gamma secretase),Aβ-induced decrease in synaptic function (hippocampal slices),learning and memory (mouse model of AD)
C[C@@H](C(=O)O)c1ccc(-c2ccccc2)c(F)c1 [Flurizan],failed,–,–
B1,–,reverses,improves
